From patent US20060153850A1

Assays:
[1] = target: human M-CSF (macrophage colony stimulating factor) (human) (UniProt P09603); assay: cell-based or functional assay
[2] = target: human M-CSF (macrophage colony stimulating factor) (human) (UniProt P09603); assay: c-fms receptor binding inhibition assay: antibody varied, 125I-M-CSF binding to c-fms-bearing cells

Human Whole Blood Monocyte Activation Assay [IC50, M] [1]: 1.98e-10 M
M-CSF Mouse Monocytic Cell Proliferation Assay [IC50, M] [1]: 7.37e-10 M
IC50 [2]: 0.006 nM
B1: monoclonal antibody 9.7.2 (antibody, human IgG4, kappa, V domains shown)
VH: QVQLVESGGGLVKPGGSLRLSCAASGFTFSDYYMSWIRQAPGKGLEWVSYISSSGSTIYYADSVKGRFTISRDNAKNSLYLQMNSLRAEDTAVYYCARRIGGMDVWGQGTTVTVSS
VL: DIQMTQSPSSLSASVGDRVTITCRASQSISGFLIWYQQRPGKAPKLLIYATSSLQSGVPLRFSGSESGTDFTLTISSLQPEDFATYYCQQSYSTPFTFGPGTKVDIKR
